Test results reported in patent publication US20150148405A1, “Expression Construct for a Lin28-Resistant Let-7 Precursor MicroRNA” (THE JOHNS HOPKINS UNIVERSITY, priority 2012, published 2015).

How the values were obtained:
Type in all cases: cell-based, mouse
GW182 = assay: Immunopurification of GW182: associated RNA, mRNAs and proteins
Procedure: Proteins and mRNAs associated with P-body component GW182 were isolated through immunoprecipitation of GW182 by modification of previously published protocols (Keene et al., 2006; Moser et al., 2009). Primary cultures of mouse hippocampal neurons (DIV 14-15) were incubated in serum-reduced medium (0.5% B27 supplement) for 2 hours, followed by […] Actinomycin-D for […] and mock or BDNF-stimulation for 30˜60 min. Cell lysates were harvested in polysomal lysis buffer (100 mM KCl, 5 mM MgCl2, 10 mM HEPES pH 7.0, 0.5% NP-40) with protease inhibitor cocktail and freshly added 20 mM EDTA, 1 mM DTT, 100 U/mL RNase inhibitor (RNaseOut, Invitrogen) and 400 μM Vanadyl ribonucleoside complexes (SIGMA). Lysates were centrifuged and the supernatants pre-cleared by one-hour incubation with recombinant protein G beads pre-washed in NT2 buffer (50 mM Tris-HCl pH 7.4, 150 mM NaCl, 1 mM MgCl2, 0.05% NP-40). Antibody coating of protein G beads was carried out with antiserum against GW182 (18033, gift of M. Fritzler) or control isotype-specific serum in NT2 buffer plus protease inhibitor for 4 hours after blocking with NT2 buffer plus 5% BSA and 1 mg/mL heparin for 1 hour. For immunoprecipitation (IP), equal amounts of lysate protein (2-5 mg) was incubated with antibody-coated beads and tumbled for 4 hours at 4° C., followed by washing. RNAs were recovered from GW182 immunoprecipitates by Tri-Reagent as described below. Recovered RNAs were resuspended in nuclease-free water, measured for RNA concentration, and immediately reverse transcribed into cDNA using a combination of random decamers and oligo(dT) primers. RT-qPCR was carried out as described below. To examine proteins co-immunoprecipitated with GW182, the washed IP beads were incubated in sample buffer at 95° C. for 5 minutes and subjected to SDS-PAGE electrophoresis and immunoblotting.

[1] = tested on: miRNA reporter (CXCR4 shRNA); assay: CXCR4 miRNA-reporter luciferase assay; settings: BDNF stimulation, Actinomycin-D
Description: The following CXCR4 siRNA/miRNA reporter assay constructs (Addgene) were used: siRNA reporter (PCD FLIP, Plasmid 12567), miRNA reporter (PCD FL4X, 12565), control luciferase reporter (PCD FLOX, 12563), and CXCR4 shRNA (pLKO.1 puro CXCR4 siRNA-2, 12272) (Wang et al., 2006). Let-7 luciferase reporters with wild-type or mutated Let-7 miRNA binding sites were gifts from G. Hannon (Liu et al., 2005b). 3′UTR reporters were constructed by inserting 3′UTRs from GluR1, CaMKIIu or KCC2 downstream of luciferase in pGL3-Control vector (Promega). A Lin28-resistant Let-7 pre-miRNA was generated by mutation of the conserved Lin28 “GGAG” recognition motif to “GtAt” in the terminal loop of pLV-hsa-let-7a-1 (Biosettia). […]
44 hours post-transfection, hippocampal cultures were treated with serum-reduced media (0.5% B27) and Actinomycin-D (0.5 ng/mL) as previously described, followed by BDNF stimulation 100 ng/mL for 4 hours. Cell lysates were collected in 1×lysis buffer (reporter lysis buffer, Promega), and luciferase (Promega) and chemiluminescent β-gal (Roche) reporter assays carried out according to manufacturer instructions using a plate-reading luminometer (Perkin Elmer). […] When required, fold change was calculated by dividing normalized stimulated samples by normalized unstimulated samples.

phospho-ERK = assay: Immunoblotting for phospho-ERK; settings: BDNF-stimulated neurons, Actinomycin-D
Procedure: Primary cultures of mouse hippocampal neurons (DIV 14 15) were incubated in serum-reduced medium (0.5% B27 supplement) for 2 hours, followed by […] Actinomycin-D for 10-20 min. Bath application of BDNF (100 ng/mL) was for designated periods (5 min-2 hours). The cultures were washed 3 times and harvested on ice with lysis buffer (50 mM Hepes, 150 mM NaCl, 10% Glycerol, 1 mM EDTA, 1% Triton-X-100, 0.2% SDS) plus freshly added protease inhibitor cocktail (Roche) and PMSF. Protein concentration was determined by Bradford Assay. If required, lysates were treated with Lambda Protein Phosphatase according to manufacturer's instructions (New England Biolabs […]). Equal amounts of lysate protein were resolved on SDS-PAGE gels, and electrotransferred to PVDF membrane. […]

B1: BDNF: brain-derived neurotrophic factor, a neurotrophin used to stimulate hippocampal neurons (protein, UniProt P23560 19-247, looked up)
Neurotrophic factor BDNF …: APMKEANIRGQGGLAYPGVRTHGTLESVNGPKAGSRGLTSLADTFEHVIEELLDEDQKVRPNEENNKDADLYTSRVMLSSQVPLEPPLLFLLEEYKNYLDAANMSMRVRRHSDPARRGELSVCDSISEWVTAADKKTAVDMSGGTVTVLEKVPVSKGQLKQYFYETKCNPMGYTKEGCRGIDKRHWNSQCRTTQSYVRALTMDSKKRIGWRFIRIDTSCVCTLTIKRGR
association of P-body components Ago2 and Dcp1a with GW182 (GW182; co-immunoprecipitation, BDNF 1 hour): increased the association | GW182-association of mRNAs whose translation is downregulated by BDNF (KCC2, Kv1.1) (GW182; control shRNA conditions): promoted the GW182-association | GW182-association of mRNAs whose translation is upregulated by BDNF (GluR1, CaMKIIu, Homer2) (GW182; control shRNA conditions): reduced the GW182-association | miRNA-mediated suppression of miRNA reporter by shCXCR4 [1]: greatly enhanced miRNA-mediated suppression | phospho-ERK induction (phospho-ERK): rapidly induced phospho-ERK
